Laboratory results reported in patent US7232805B2, “Cobalamin conjugates for anti-tumor therapy” (Inflabloc Pharmaceuticals, Inc., priority 2003, dated 2007).

How the values were obtained:
MCF-7 cells = test: CellTiter-Glo Luminescent Cell Viability Assay, MCF-7 cells; assay type: cell-based, human; conditions: MCF-7, 96 hours, 100 μM down to 10 nM, FIG. 6a
Excerpt: (§1) FIGS. 6a-6d depict the results of in vitro assays of the conjugate against four cell lines. FIG. 6A is a chart depicting the results of the conjugate against MCF-7 cells, cells derived from a human breast cancer cell line. FIG. 6B is a chart depicting the results of the conjugate against SK-BR-3 cells, cells derived from a human breast adenocarcinoma cell line. FIG. 6C is a chart depicting the results of the conjugate against HL-60 cells, cells derived from a human promyelocytic leukemia cell line. FIG. 6D is a chart depicting the results of the conjugate against SK-N-MC cells, cells derived from a human brain neuroblastoma (neuroepithelioma) cell line. […]
(§2) After 96 hours, the effects of doxorubicin and B12-S-doxorubicin on cell viability were determined using an assay from Promega. The CellTiter-Glo™ Luminescent Cell Viability Assay quantitates the ATP present in a culture, which correlates with metabolically active cells. Luminescence, which is dependent on ATP concentration, was measured for each individual well on a Wallac MicroBeta® JET Liquid Scintillation and Luminescence Counter. The average luminescence value of the three wells containing medium alone was subtracted from the raw data values to give corrected values. […] The three corrected values for wells dosed with the same concentration of compound were averaged and the standard deviation calculated. […]

SK-BR-3 cells = test: CellTiter-Glo Luminescent Cell Viability Assay, SK-BR-3 cells; assay type: cell-based, human; conditions: SK-BR-3, 96 hours, 100 μM down to 10 nM, FIG. 6b
Excerpt: as §1, §2

[1] = system: normal murine lymph node cells; test: CellTiter-Glo Luminescent Cell Viability Assay, normal murine lymph node cells; assay type: cell-based; conditions: 96 hours, FIG. 7
Excerpt: FIG. 7 is a chart depicting the results of an in vitro assay of the conjugate against normal murine lymph node cells. The assay employed is the CellTiter-Glo™ Luminescent Cell Viability Assay from Promega Corporation, which is recognized in the art as being predictive of the effect of a compound on cell viability. The assay is detailed in Example 8. The method described by Promega Corporation (Technical Bulletin No. 288) was followed with no exceptions.
Doxorubicin and CobalaRubicin-200 stocks and stock solutions, prepared in 5% DMSO in water, were stored at −20° C. and protected from light. […]
as §2, with “calculated. Percent cell viability was calculated by considering the untreated cells as 100% viable.” for “calculated.”

[2] = maximum tolerated dose of the conjugate in nude mice (Example 10); assay type: in vivo, Charles River nude (athymic) mice; conditions: 5 consecutive daily intravenous doses, FIG. 10
Description: The following procedure was used to investigate the maximum tolerated dose of the vitamin B12-doxorubicin conjugate in Charles River nude (athymic) mice. Five groups of 5 mice each were weighed and then administered the first of 5 consecutive daily doses of intravenous conjugate; dose levels were 8, 16, 32, 48 and 54 mg/kg/day. Overall toxicity was assessed by weighing the mice twice weekly starting on Day 1 of dosing (the initial dose) and by frequent inspection for clinical signs and symptoms. The NCI definition of the MTD for cancer chemotherapy in mice was adopted for this study. The desirable MTD is that dose of drug mediating a maximum mean body weight loss of ≦10% and no toxic deaths. The upper limit of the MTD is that dose causing a mean 20% weight loss in the group, and one death per 10 animals. After dosing once a day for 5 consecutive days, animals were monitored for another 5 days to address recurrent and latent toxicities.

[3] = systemic toxicity / MTD of free doxorubicin versus conjugate on a molar basis (separate study); assay type: in vivo, mice

For `COc1cccc2c1C(=O)c1c(O)c3c(c(O)c1C2=O)C[C@@](O)(C(=O)CO)C[C@@H]3O[C@H]1C[C@H](NC(=O)OCc2ccc(NC(=O)[C@H](CCCCN)NC(=O)[C@H](Cc3ccccc3)NC(=O)CCCCCNC(=O)OC[C@H]3O[C@H](n4cnc5cc(C)c(C)cc54)[C@H](O)[C@@H]3OP(=O)(O)O[C@H](C)CNC(=O)CC[C@@]3(C)C4=C(C)C5=NC(=CC6=NC(=C(C)C7=N[C@@](C)([C@H](N4)[C@@H]3CC(N)=O)[C@@](C)(CC(N)=O)[C@@H]7CCC(N)=O)[C@@](C)(CC(N)=O)[C@@H]6CCC(N)=O)C(C)(C)[C@@H]5CCC(N)=O)cc2)[C@H](O)[C@H](C)O1` [conjugate 13, B12-5′-OCONH(CH2)5CO-Phe-Lys-PABC-Dox], the “cell viability versus free doxorubicin” value (MCF-7 cells) was “same effectiveness as doxorubicin and is slightly less potent than doxorubicin”, the “cell viability versus free doxorubicin” value (SK-BR-3 cells) was “same effectiveness as doxorubicin and is slightly less potent than doxorubicin” and the “cell viability versus free doxorubicin” value [1] was “as effective as doxorubicin but shows slightly less potency than doxorubicin”. For the same compound, the “toxicity versus dose, as measured by percent mean body weight loss” value [2] was “clear trend of increasing toxicity with increasing dose”, the MTD ([2]; mouse, in vivo, percent mean body weight loss, read-out: dose at which the conjugate was well tolerated (MTD study)) was ≤ 48 mg/kg/day and the “lethality at the same high molar dose” value ([3]; free doxorubicin at the same high molar dose as the conjugate) was “not by the doxorubicin conjugate”. For the same compound, the “dose higher than that of free doxorubicin on a molar basis, still with less systemic toxicity” value ([3]; molar basis) was “at least 2.3 time”.
